Data from the supplement of paper PMC9170038.

Test system: MS2 coat protein
Test: apparent KD of MS2 coat protein; higher = weaker reporter binding
Conditions: Eterna round: R107
Summary of the method: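 Designed RNA switches were transcribed on-chip from Illumina sequencing clusters. SNAP-549-labelled MS2 coat protein was titrated onto them in twofold steps from 0.7 or 1.5 nM to 3 µM in 100 mM Tris-HCl pH 7.5, 80 mM KCl, 4 mM MgCl2, either without or with constant ligand. Apparent KD reflects the per-design median of normalised cluster binding-curve fits.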

[1] = input ligand: theophylline 20 uM
[2] = input ligand: theophylline 2 mM
[3] = input ligand: tryptophan 2.4 mM

Sequence	apparent KD of MS2 coat protein (input ligand: arginine 13.2 mM) [nM]	apparent KD of MS2 coat protein (input ligand: none) [nM]	apparent KD of MS2 coat protein [1] [nM]	apparent KD of MS2 coat protein [2] [nM]	apparent KD of MS2 coat protein [3] [nM]
GCCUAGCAGCGAAGGAGCGAGGUAACUUAAUAAAUAAAUACAAGAGGAUCACCCUUGUUUCCUCAGGUAGGUCGCGCUGCUAGGC [SSAB Alternative Aptamer #2 NP+V+V2]	18.2	22.6	25.6	20.9	23.5
GCGCUAUUUAUUGAUACCAGAUACAGGAAUCACAUGAGGAUCACCCAUGUGGAAUGAAGGAUCCCUUGGCAGCAAUAGUCAAAAU [theeternabot_sameState_MS2_Theo_B_9]	16.6		19.6		19.9
GCUAGGUCUACGGCCGCCACUAGACAUGGGUAAGACAUGAGGAUCACCCAUGUACUACGAGUGCAUAGGACCGGGUAGACCUAGC [SSTB NP+V+V2 #19 +-Same Structure]	111		277	516	
GCUGCCAUACGAAGGAGCGCUGGUGUAAUGAGGCGAACAUGAGGAUCACCCAUGUGGCAUAAGCAGGUAGGUCGCGUAUGGCAGC [EAB #16]	16.6	17.2	20.2	20.8	15.9
GCUGGGUGCGCAAGGACCUGGCGUUGCGAUACCAGCACGGUAACGUGCCCUUGGCAGCGCACAUGAGGAUCACCCAUGUGGUGUG [#1 Exclusion - Theophylline A Attempt #20 (HarryS)]	96.8	230	333	301	162
GCUGUACCAUGAAGGAGCGUCAUGGAUUGCGAAUACACAUGAGGAUCACCCAUGUUUUUAUGACAGGUAGGUCGCAUGGUACAGC [#01 Same State - Arginine B]	17.8	14.5	24.5	19.2	17.1
GCUUCACAUGAGGAUCACCCAUGUCCGGAUACCAGCUCUCCAGACAGCCCUUGGCAGCCGAGCGCCCGAUUAUAUACCCUAGGAG [theeternabot_sameState_MS2_Theo_A_28]	21.1		53.7		27.9
GGAACAUGAGGAUCACCCAUGUCGAGUGGUCGAGGACCGGUACGGCCGCCACUCGACAUUGCUCAUAGGUAUAGCGUGAGAACGC [Same State - Tryptophan 1]	100	326	546	961	618
GGACUAACCAGAAGGAGCGACACGCAGAAACUGCUAUUUCCUCCGCACGAGGAUCACCCGUGUCAGGUAGGUCGCUGGUUAGUCG [ArgBX 28]	22.1	19.5	25.4	20.3	21.4
GGACUAACCAGAAGGAGCGGCGCGCAGAAACUGCAAAAUCCUCCGCACGAGGAUCACCCGUGUCAGGUAGGUCGCUGGUUAGUCG [ArgBX 28]	18	17.7	16.2	20.8	17.3
GGACUAACUCGAAGGAGCGACGCGCAGAAACUGCAAUUUCCUCCACACGAGGAUCACCCGUGUCAGGUAGGUCGCGAGUUAGUCG [ArgBX 29]	14.9	12.8	18.6	14.7	16
GGAGGUACCUGAAGGAGCGACAUGAGGAUCACCCAUGUCUCCCGUUAUGGGAGUUCUUUAGGUCAGGUAGGUCGCAGGUACCUCC [#1 Exclusion - Arginine B Attempt #3 (Inspired by Omei)]	13.7	88.2			
GGAGUCGUCACGGCCGCCACUGCGGUGGUGUGACAUGAGGAUCACCCAUGUUGUCAUGCGGCCCUUAGGACCGGGUGUCGGUUCC [#1 Exclusion - Tryptophan B Attempt #23 (HarryS)]	57.1		85.1	78.3	
GGAUAGGACACGGCCGCCACUAGCUAGGAUACUAGCAACAUUUCCUCACAUGAGGAUCACCCAUGUAGGACCGGGUGUCCUAUCG	79.9		145	112	
GGAUAGGACGGAAGGAGCGACGUGAGGCUAAUGUCCAGUCUUCUACAUGAGGAUCACCCAUGUCAGGUAGGUCGCCGUCCUAUCG [#21 Exclusion - Arginine B]	30.3	28.1	51.7	40.7	41.8
GGAUGCCACUAUGGAUAGCACGAUGCCGAUACCAGCUAGGAAACUAGCCCUUGGCAGCGGAACAUGAGGAUCACCCAUGUAUCCU [EThA NP+V+V2 #8]	21.3	24.2	30.5	42.7	21.6
GGAUGGAACUCGGCCGCCACUGGUGAUCCUAAUGUACAUGAGGAUCACCCAUGUACAUGAGAAGAUAGGACCGGGAGAUAACAUG [V5]	23.5		31.2	29.4	
GGAUUCAACUCGGCCGCCACUGGUGAUCCUAAUGUACAUGAGGAUCACCCAUGUACAUGAGAAUACAGGACCGGGAGAUAAGCAA [Tryptophan B V2 (+4A)]	20.1		26.5	24	
GGCACAUAGUCGGCCGCCACUACGUGGAGAUCGGAGUACAUGAGGAUCACCCAUGUAUGGAAGGGUAGGACCGGGACUAUGUGCC [Horalka]	38.3	67.1	38.5	123	18.7
GGCACAUAGUCGGCCGCCACUAGGGUGUAGUGGAAUAACAUGAGGAUCACCCAUGUAUUUGGGACUAGGACCGGGACUAUGUGCC [Leopard]	27.2		40.4	30	
GGCACCAGGCGAAGGAGCGUGAAGACAUGAGGAUCACCCAUGUAGAGGCCCGGACAGGGUUCGCAGGUAGGUCGCGCCUGGUGCC [#1 Same State - Arginine B Attempt #9 (HarryS)]	22.9	16.2	40.6	26.8	13.5
GGCAGUCAUAGCAGGGCAAAUAUACUCGAAGGAGCGUCAUAGUAGGCAGGUAGGUCGCGAGACAUGAGGAUCACCCAUGUAGAGA [uuumullin]	26.1	68.9	46	66	49.3
GGCCAUGGAAACAUGGCGGCGGCAUAUGCGCGAGGACCGGUACGGCCGCCACUCGGGCAACAUGAGGAUCACCCAUGUUCCUCAU [ETA NP+V+V2 #24 +-Same Structure]	67.4		356	388	
GGCCUAGCGAGCGCUCGCUAGGCCGCGGAUACCAGCGAGGUCCAUCGCCCUUGGCAGCCGAACAUGAGGAUCACCCAUGUCGGUA [#1 Same State - Theophylline A Attempt #15 (HarryS)]	9.5	10.3	13.4	16.9	9.68
GGCUAGGUCUCGGCCGCCACUGCUACAUGAGGAUCACCCAUGUACCUGGGCGGUCGCUCCCUCGGCAGGACCGGGAGACAUUCGU [Onarbeisan]	9.2		13.8	12.5	
GGGCCCGGGCCCGCGCGGGCCCGGGCCCAACGAGGACCGGUACGGCCGCCACUCGAACGAGUGGGUACAUGAGGAUCACCCAUGU [Baa]	38.6	30.7	55.9	48.6	33.4
GGGCUUGUGGUGCGGCGUGUUCCGCUCCGUCGAGGACCGGUACGGCCGCCACUCGACAUGAGGAUCACCCAUGUGCGAGCGCGCG [#1 Exclusion - Tryptophan A Attempt #7 (HarryS)]	11.4	17.3	16.1	15.4	25.1
